Tests used:
factor X = factor X (UniProt P00742)
factor Xa = factor Xa (UniProt P00742)

daboxin P, sequence (C0HK16 whole entry): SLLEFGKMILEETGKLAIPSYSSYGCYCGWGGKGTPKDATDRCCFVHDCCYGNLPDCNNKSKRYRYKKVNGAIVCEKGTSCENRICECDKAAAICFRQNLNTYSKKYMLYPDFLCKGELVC

Row | Substance | residual activity of ETC treated with alkylated daboxin P (3 uM) (factor X) [%] | residual activity of ITC treated with alkylated daboxin P (3 uM) (factor X) [%] | IC50 of inhibition of FXa generation by the extrinsic tenase complex (ETC), in the presence of phospholipids, chromogenic substrate S-2222 (factor X) [nM] | IC50 of inhibition of FXa generation by the intrinsic tenase complex (ITC), in the presence of phospholipids, chromogenic substrate S-2222 (factor X) [nM] | residual activity of ETC (with phospholipids) upon treatment with 3 uM of daboxin P (factor X) [%] | residual activity of ETC reconstituted without phospholipid, treated with daboxin P (factor X) [%] | residual activity of ITC (with phospholipids) upon treatment with 3 uM of daboxin P (factor X) [%] | residual activity of ITC reconstituted without phospholipid, treated with daboxin P (factor X) [%] | residual activity of the prothrombinase complex (thrombin formation, S-2238) when daboxin P was pre-incubated with FXa followed by addition of FVa (factor Xa) [%]
1 | alkylated daboxin P (enzyme) | 23 | 19 | – | – | – | – | – | – | –
2 | daboxin P (enzyme) | – | – | 0.43 | 39.2 | 9.05 | 25 | 2.8 | 20.1 | 11.3

— PMC4835082
